In doi:10.1101/2022.12.08.519103 (bioRxiv, 2022):
Each block holds one binder with its values, some of them ahead of it. Square brackets hold non-standard residues; d marks the D form. Ends that are not written are not given here. pS = N[C@@H](COP(=O)(O)O)C(=O)O

Columns and labels:
Test in all cases: Holdup Multiplex
[1] = target: T1, AviTag-His6-MBP-TEVsite-14-3-3γ (human, UniProt P61981 1-247)
T1 sequence (looked up): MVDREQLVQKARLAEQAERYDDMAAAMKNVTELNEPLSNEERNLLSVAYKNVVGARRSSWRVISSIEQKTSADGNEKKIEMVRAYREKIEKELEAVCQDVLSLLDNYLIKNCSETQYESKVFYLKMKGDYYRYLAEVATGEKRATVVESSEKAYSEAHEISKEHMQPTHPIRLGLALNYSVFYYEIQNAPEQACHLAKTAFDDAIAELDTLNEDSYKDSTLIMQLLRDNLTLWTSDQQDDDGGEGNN

[2] = target: T2, AviTag-His6-MBP-TEVsite-14-3-3ε (human, UniProt P62258 1-255)
T2 sequence (looked up): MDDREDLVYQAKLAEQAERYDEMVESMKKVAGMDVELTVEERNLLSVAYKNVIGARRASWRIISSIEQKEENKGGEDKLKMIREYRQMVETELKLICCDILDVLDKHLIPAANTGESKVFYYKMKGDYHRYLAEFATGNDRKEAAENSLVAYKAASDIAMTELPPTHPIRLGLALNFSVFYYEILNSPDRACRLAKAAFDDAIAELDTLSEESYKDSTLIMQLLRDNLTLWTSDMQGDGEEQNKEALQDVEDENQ

[3] = target: T3, AviTag-His6-MBP-TEVsite-14-3-3σ (human, UniProt P31947 1-248)
T3 sequence (looked up): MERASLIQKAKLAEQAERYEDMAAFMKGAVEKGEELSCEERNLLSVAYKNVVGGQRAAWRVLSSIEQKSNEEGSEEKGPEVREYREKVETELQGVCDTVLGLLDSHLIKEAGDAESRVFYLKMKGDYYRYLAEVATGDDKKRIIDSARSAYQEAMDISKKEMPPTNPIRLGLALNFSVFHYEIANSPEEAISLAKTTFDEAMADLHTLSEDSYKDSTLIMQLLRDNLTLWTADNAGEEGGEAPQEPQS

Kd [1]: 0.7 µM
Binder: QRISQ[pS]APVK (peptide, UniProt P46937 271-280, looked up, also: phosphoserine at 276 (S4 or S6)) [YAP1 pSer276 phosphopeptide]

Kd [2]: ~900 µM
Binder: GARPV[pS]VAGS (peptide, UniProt Q9Y4H2 379-388, looked up, also: phosphoserine at 384 (S6 or S10)) [IRS2 pSer384 phosphopeptide]

Kd ratio between γ and σ [3]: 60 fold
Binder: LRRPH[pS]VIGG (peptide, UniProt Q00537 70-79, looked up) [phosphopeptide centered on pSer75 from CDK17]
